The source of these data is publication PMC9835956 (Science (New York, N.y.), 2021).

The target of experiment [1] is SARS-CoV-2 S N-terminal domain (NTD), wild type, with the native signal peptide (SARS-CoV-2, Wuhan-Hu-1 (wild type), UniProt P0DTC2). Put plainly: ELISA. The conditions noted are these: both partners purified.
Experiment [2] has as its target SARS-CoV-2 WT NTD with the native signal peptide (SARS-CoV-2, Wuhan-Hu-1 (wild type), UniProt P0DTC2). Put plainly: ELISA. The note with it: both partners purified. A general note: ELISA stands for enzyme-linked immunosorbent assay.

B1: S2X333 mAb (NTD-specific, neutralizing, antigenic site i) (antibody, V domains shown)
VH: VQLVESGGGVVQPGRSLRLSCAASGFTFSNYGMHWVRQAPGKGLEWVAVIWYDGSNKFYADSVKGRFTISRDNSKNSLYLQMNSLRAEDTAVYFCARAFPDSSSWSGFTIDYWGQGTLVTV
VL: YELTQPPSVSTARITCGGNNIERKSVHWCQQKPGQAPALVVYDDSDRPSGIPERFSGSNSGNTATLTISRVEAGDEADYYCQVWDSGSDQVIFGGGTKLT
Take B1: the binding result in experiment [1] is “binds”.

B2: S2L20 mAb (antibody, V domains shown)
VH: EVQLVESGGGVVQPGGSLRLSCAASGFTFNSYGMHWVRQAPGKGLEWVAFIRYDGGNKYYADSVKGRFTISRDNSKNTLYLQMKSLRAEDTAVYYCANLKDSRYSGSYYDYWGQGTLVTVS
VL: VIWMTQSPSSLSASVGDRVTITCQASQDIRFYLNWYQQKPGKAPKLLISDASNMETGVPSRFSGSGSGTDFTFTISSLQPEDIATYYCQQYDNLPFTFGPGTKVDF
Take B2: the binding result in experiment [2] was “binds”.
